Assay results as given in the RNAGym collection of RNA variant scans (doi:10.7554/elife.80360).

B1: CPEB3 Ribozyme (parent)
chain: GGGGGCCACAGCAGAAGCGUUCACGUCGCGGCCCCUGUCAGAUUCUGGUGAAUCUGCGAAUUCUGCUGU

Variants of: B1
Test: self-cleavage, relative activity (ratio to wild type); higher = more cleavage; co-transcriptional

Row | Variant | self-cleavage
1 | GGGGGCCACAGCAGAAGCGUUCACGUCGCGGCCCCUUUCAGAUUAUGGUGAAUCUGCGAAUUCUGCUGU [G37U C45A] | 0.295
2 | GGGGGCCACAGCAGAAGCGUUCACGUCGCGGCCCCUGACAGAUUCCGGUGAAUCUGCGAAUUCUGCUGU [U38A U46C] | 0.954
3 | GGGGGCCACAGCAGAAGCGUUCACGUCGCGGCCCCUGACAGAUUCAGGUGAAUCUGCGAAUUCUGCUGU [U38A U46A] | 0.941
4 | GGGGGCCACAGCAGAAGCGUUCACGUCGCGGCCCCUUUCAGAUUCUGGUGAAUCUGCGAAUUCUGCUUU [G37U G68U] | 0.375
5 | GGGGGCCACAGCAGAAGCGUUCACGUCGCGGCCCCUGACAGAUUCUGGUGAAUCUGCGAAUUCUGCUAU [U38A G68A] | 0.922
6 | GGGGGCCACAGCAGAAGCGUUCACGUCGCGGCCCCUGACAGAUCCUGGUGAAUCUGCGAAUUCUGCUGU [U38A U44C] | 0.802
7 | GGGGGCCACAGCAGAAGCGUUCACGUCGCGGCCCCUUUCAGAUUCUGGUGACUCUGCGAAUUCUGCUGU [G37U A52C] | 0.281
8 | GGGGGCCACAGCAGAAGCGUUCACGUCGCGGCCCCUUUAAGAUUCUGGUGAAUCUGCGAAUUCUGCUGU [G37U C39A] | 0.273
9 | GGGGGCCACAGCAGAAGCGUUCACGUCGCGGCCCCUUUGAGAUUCUGGUGAAUCUGCGAAUUCUGCUGU [G37U C39G] | 0.214
10 | GGGGGCCACAGCAGAAGCGUUCACGUCGCGGCCCCUGCCAGAUUCUGGUGAAUCUGCGCAUUCUGCUGU [U38C A59C] | 0.306
11 | GGGGGCCACAGCAGAAGCGUUCACGUCGCGGCCCCUGCCAGAUUCUGGUGAAUCUGCGGAUUCUGCUGU [U38C A59G] | 1.01
12 | GGGGGCCACAGCAGAAGCGUUCACGUCGCGGCCCCUUUCAGAUUCUGGUGAAUCUGCGAAUCCUGCUGU [G37U U62C] | 0.299
13 | GGGGGCCACAGCAGAAGCGUUCACGUCGCGGCCCCUUUCAGAUUCUGGUGAAUCUGGGAAUUCUGCUGU [G37U C57G] | 0.209
14 | GGGGGCCACAGCAGAAGCGUUCACGUCGCGGCCCCUUUCAGAUUCUAGUGAAUCUGCGAAUUCUGCUGU [G37U G47A] | 0.324
15 | GGGGGCCACAGCAGAAGCGUUCACGUCGCGGCCCCUGACAGCUUCUGGUGAAUCUGCGAAUUCUGCUGU [U38A A42C] | 0.892
16 | GGGGGCCACAGCAGAAGCGUUCACGUCGCGGCCCCUGACAGGUUCUGGUGAAUCUGCGAAUUCUGCUGU [U38A A42G] | 0.755
17 | GGGGGCCACAGCAGAAGCGUUCACGUCGCGGCCCCUGACAGAUUCUGGUGAAGCUGCGAAUUCUGCUGU [U38A U53G] | 0.706
18 | GGGGGCCACAGCAGAAGCGUUCACGUCGCGGCCCCUGACAGAUUCUGGUGAAACUGCGAAUUCUGCUGU [U38A U53A] | 0.864
19 | GGGGGCCACAGCAGAAGCGUUCACGUCGCGGCCCCUGACAGAUUCUGGUGAAUAUGCGAAUUCUGCUGU [U38A C54A] | 0.797
20 | GGGGGCCACAGCAGAAGCGUUCACGUCGCGGCCCCUGACAGAUUCUGGUGAAUGUGCGAAUUCUGCUGU [U38A C54G] | 0.8

Row | Variant | self-cleavage
21 | GGGGGCCACAGCAGAAGCGUUCACGUCGCGGCCCCUGACAAAUUCUGGUGAAUCUGCGAAUUCUGCUGU [U38A G41A] | 0.718
22 | GGGGGCCACAGCAGAAGCGUUCACGUCGCGGCCCCUGACAUAUUCUGGUGAAUCUGCGAAUUCUGCUGU [U38A G41U] | 0.795
23 | GGGGGCCACAGCAGAAGCGUUCACGUCGCGGCCCCUGCCAGAUUCUGGUGAAUCUGCGAUUUCUGCUGU [U38C A60U] | 0.331
24 | GGGGGCCACAGCAGAAGCGUUCACGUCGCGGCCCCUUUCAGAUUCUGGUGAAUCAGCGAAUUCUGCUGU [G37U U55A] | 0.187
25 | GGGGGCCACAGCAGAAGCGUUCACGUCGCGGCCCCUGACAGAUUCUGGUGAAUCUGCGAAUGCUGCUGU [U38A U62G] | 0.742
26 | GGGGGCCACAGCAGAAGCGUUCACGUCGCGGCCCCUUUCAGAGUCUGGUGAAUCUGCGAAUUCUGCUGU [G37U U43G] | 0.298
27 | GGGGGCCACAGCAGAAGCGUUCACGUCGCGGCCCCUGCCAGAUUGUGGUGAAUCUGCGAAUUCUGCUGU [U38C C45G] | 0.92
28 | GGGGGCCACAGCAGAAGCGUUCACGUCGCGGCCCCUGACAGAUUCUGGUGAAUCUGCGAAUUCGGCUGU [U38A U64G] | 0.858
29 | GGGGGCCACAGCAGAAGCGUUCACGUCGCGGCCCCUGACAGAUUCUGGUGAAUCUGCGAAUUCAGCUGU [U38A U64A] | 0.799
30 | GGGGGCCACAGCAGAAGCGUUCACGUCGCGGCCCCUGACAGAUUUUGGUGAAUCUGCGAAUUCUGCUGU [U38A C45U] | 0.918
31 | GGGGGCCACAGCAGAAGCGUUCACGUCGCGGCCCCUGACAGAUUAUGGUGAAUCUGCGAAUUCUGCUGU [U38A C45A] | 0.875
32 | GGGGGCCACAGCAGAAGCGUUCACGUCGCGGCCCCUGCCAGAUUCUGGUGAAUCUGUGAAUUCUGCUGU [U38C C57U] | 0.409
33 | GGGGGCCACAGCAGAAGCGUUCACGUCGCGGCCCCUGCCAGAUUCUGGUGAAUCUGAGAAUUCUGCUGU [U38C C57A] | 0.3
34 | GGGGGCCACAGCAGAAGCGUUCACGUCGCGGCCCCUUUCAGAUUCUGGUGAAUUUGCGAAUUCUGCUGU [G37U C54U] | 0.332
35 | GGGGGCCACAGCAGAAGCGUUCACGUCGCGGCCCCUGCCAGAUUCUGGUGAGUCUGCGAAUUCUGCUGU [U38C A52G] | 0.909
36 | GGGGGCCACAGCAGAAGCGUUCACGUCGCGGCCCCUGCCAGAUUCUGGUGAUUCUGCGAAUUCUGCUGU [U38C A52U] | 0.895
37 | GGGGGCCACAGCAGAAGCGUUCACGUCGCGGCCCCUGACAGAUUCUGGUGAAUCUGGGAAUUCUGCUGU [U38A C57G] | 0.297
38 | GGGGGCCACAGCAGAAGCGUUCACGUCGCGGCCCCUGACAGAAUCUGGUGAAUCUGCGAAUUCUGCUGU [U38A U43A] | 0.784
39 | GGGGGCCACAGCAGAAGCGUUCACGUCGCGGCCCCUUUCAGAUUCUGGUCAAUCUGCGAAUUCUGCUGU [G37U G50C] | 0.315
